From patent publication US20260258410

Test system: T1, ADAR2 R2D E488Q (dsRBD2 + deaminase domain) E488Q (Homo sapiens), P78563-2
T1 sequence: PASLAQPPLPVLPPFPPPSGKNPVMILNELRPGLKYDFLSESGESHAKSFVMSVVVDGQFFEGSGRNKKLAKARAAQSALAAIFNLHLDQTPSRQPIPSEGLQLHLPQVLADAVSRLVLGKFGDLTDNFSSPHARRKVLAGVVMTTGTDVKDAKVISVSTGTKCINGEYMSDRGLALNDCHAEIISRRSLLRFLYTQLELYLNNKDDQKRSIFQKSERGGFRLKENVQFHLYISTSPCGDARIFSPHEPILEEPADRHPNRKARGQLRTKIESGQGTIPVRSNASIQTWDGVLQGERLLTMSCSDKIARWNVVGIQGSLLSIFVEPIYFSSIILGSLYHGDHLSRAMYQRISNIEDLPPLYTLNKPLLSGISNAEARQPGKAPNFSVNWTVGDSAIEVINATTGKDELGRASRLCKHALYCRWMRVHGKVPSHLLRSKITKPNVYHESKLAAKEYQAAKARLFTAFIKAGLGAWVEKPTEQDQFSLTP
Experiment: EMSA
Conditions: 8-azanebularine at position 13 of SEQ 7; protein 0.25-256 nM

GCUCGCGAUGCGNGAGGGCUCUGAUAGCUACG / CGUAGCUAUCAGAGCCCCCCGGCAUCGCGAGC [32 bp GLI1 GG RNA with 8-azanebularine]
Kd: 6 nM
